Reference: patent US20190324031A1 (MARS, published 2019)
Numbered stars: 1 amine (or outer) side, 2 acyl side, 3 side chain; on linkers, the order of the positions; unused ones are H or OH. Square brackets hold non-standard residues; d marks the D form. Ends that are not written are not given here. γGlu = O=C(O)[C@H](CCC(=O)[*:2])N[*:1]

Target: T1, feline calcium-sensing receptor (fCaSR) from Felis catus, full length, expressed in HEK T-Rex/natClytin cells … (Felis catus)
T1 chain: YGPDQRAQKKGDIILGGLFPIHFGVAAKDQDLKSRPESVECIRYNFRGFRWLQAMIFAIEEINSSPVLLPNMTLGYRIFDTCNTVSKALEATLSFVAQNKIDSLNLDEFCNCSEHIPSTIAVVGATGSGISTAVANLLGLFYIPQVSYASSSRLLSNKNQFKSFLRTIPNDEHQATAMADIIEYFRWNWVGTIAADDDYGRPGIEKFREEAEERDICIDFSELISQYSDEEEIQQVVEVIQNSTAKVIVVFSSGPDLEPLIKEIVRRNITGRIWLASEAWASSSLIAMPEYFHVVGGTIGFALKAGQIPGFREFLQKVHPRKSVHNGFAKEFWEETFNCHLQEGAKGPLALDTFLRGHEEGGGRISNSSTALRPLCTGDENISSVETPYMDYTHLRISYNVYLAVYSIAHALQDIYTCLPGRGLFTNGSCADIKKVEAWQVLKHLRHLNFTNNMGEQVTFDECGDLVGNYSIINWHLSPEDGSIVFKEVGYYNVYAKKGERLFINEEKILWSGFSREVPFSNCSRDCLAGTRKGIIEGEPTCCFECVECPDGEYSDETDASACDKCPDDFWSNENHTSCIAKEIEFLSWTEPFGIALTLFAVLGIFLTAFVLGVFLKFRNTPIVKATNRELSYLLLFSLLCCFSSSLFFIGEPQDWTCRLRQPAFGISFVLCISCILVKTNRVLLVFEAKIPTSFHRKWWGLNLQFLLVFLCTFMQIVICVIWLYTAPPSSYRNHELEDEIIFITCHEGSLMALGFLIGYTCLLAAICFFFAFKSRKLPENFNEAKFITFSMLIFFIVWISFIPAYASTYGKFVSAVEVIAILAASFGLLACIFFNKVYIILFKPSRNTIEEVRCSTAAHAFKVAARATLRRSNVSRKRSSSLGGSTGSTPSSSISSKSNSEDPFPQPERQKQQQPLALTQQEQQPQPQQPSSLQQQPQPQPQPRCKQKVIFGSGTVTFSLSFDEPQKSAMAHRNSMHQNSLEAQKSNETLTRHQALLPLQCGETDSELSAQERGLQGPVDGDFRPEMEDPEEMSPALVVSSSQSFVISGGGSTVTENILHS
Assay: cell-based or functional assay

Agonist EC50: 8.2 mM
B1: L-Glutathione (γ-Glu-Cys-Gly) (peptide)
peptide: [γGlu]-Cys-Gly
modifications: also: γ-glutamyl peptide bond between Glu side chain and Cys
